These results are taken from publication PMC7954794 (2021).

Sequences and labels used below:
B1: S. cerevisiae Abp1 (full length; SH3 domain 535-592 mutated) / Hua2 (parent complex)
chain 1: MALEPIDYTTHSREIDAEYLKIVRGSDPDTTWLIISPNAKKEYEPESTGSSFHDFLQLFDETKVQYGLARVSPPGSDVEKIIIIGWCPDSAPLKTRASFAANFAAVANNLFKGYHVQVTARDEDDLDENELLMKISNAAGARYSIQTSSKQQGKASTPPVKKSFTPSKSPAPVSKKEPVKTPSPAPAAKISSRVNDNNDDDDWNEPELKERDFDQAPLKPNQSSYKPIGKIDLQKVIAEEKAKEDPRLVQKPTAAGSKIDPSSDIANLKNESKLKRDSEFNSFLGTTKPPSMTESSLKNDDDKVIKGFRNEKSPAQLWAERKAKQNSGNAETKAEAPKPEVPEDEPEGEPDVKDLKSKFEGLAASEKEEEEMENKFAPPPKKSEPTIISPKPFSKPQEPVKAEEAEQPKTDYKKIGNPLPGMHIEADNEEEPEENDDDWDDDEDEAAQPPLPSRNVASGAPVQKEEPEQEEIAPSLPSRNSIPAPKQEEAPEQAPEEEIEEEAEEAAPQLPSRSSAAPPPPPRRATPEKKPKENPWATAEYDYDAAEDNELTFVENDKIINIEFVDDDWWLGELEKDGSKGLFPSNYVSLGN
chain 2: MQQTKFGKMYLDHDSVVEYSEDEIVEADRITLGYKKRLSMIENQMRHLLEDFSLDVQQIEPILADLQKYYDAFLQLLQKRNKSLQCKRSTHQPVPSPMNSQTSTNAKVNLSGKLMKFQLNSVQKFDEENILRILQNKIEFEHYFQIDKGKKQKVLLLAVYQCLNGPTRLHKVLNIEGIIHNNSIRTILGKQVSSSKWTVFLYDVKLVLLAHRQDVPNLETSKMIVRYGDLFPCALYFKDHTAY

This assay covers variants of B1. As to the kind of experiment: DHFR protein-fragment complementation in yeast (Abp1-DHFR F[1,2] x partner-DHFR F[3]), deep mutational scanning, second methotrexate selection vs reference; S. cerevisiae, DHFR-PCA selection in liquid with methotrexate at 30 C, two 72 h selections (the score uses the second); reference = the pre-selection culture.
Regarding chain 1 I560Q, the screen value was -0.419 DMS score: mean over two replicates of log2(f_test/f_ref + 0.5)/ln 2, minus the synonymous-codon median (not a log2 ….
As for chain 1 L574N, the screen value was 0.59 DMS score: mean over two replicates of log2(f_test/f_ref + 0.5)/ln 2, minus the synonymous-codon median (not a log2 ….
In the case of chain 1 L571E, the screen value is 1.04 DMS score: mean over two replicates of log2(f_test/f_ref + 0.5)/ln 2, minus the synonymous-codon median (not a log2 ….
Turning to chain 1 L571F, the screen value is 0.614 DMS score: mean over two replicates of log2(f_test/f_ref + 0.5)/ln 2, minus the synonymous-codon median (not a log2 ….
To chain 1 E563C belongs -0.992 DMS score: mean over two replicates of log2(f_test/f_ref + 0.5)/ln 2, minus the synonymous-codon median (not a log2 …; to chain 1 A545K, 0.224 DMS score: mean over two replicates of log2(f_test/f_ref + 0.5)/ln 2, minus the synonymous-codon median (not a log2 …; to chain 1 D548L, -0.0418 DMS score: mean over two replicates of log2(f_test/f_ref + 0.5)/ln 2, minus the synonymous-codon median (not a log2 ….
In the case of chain 1 W536T, the screen value is -0.062 DMS score: mean over two replicates of log2(f_test/f_ref + 0.5)/ln 2, minus the synonymous-codon median (not a log2 ….
As for chain 1 W536S, the screen value was -0.564 DMS score: mean over two replicates of log2(f_test/f_ref + 0.5)/ln 2, minus the synonymous-codon median (not a log2 ….
As for chain 1 W536F, the figure is -0.302 DMS score: mean over two replicates of log2(f_test/f_ref + 0.5)/ln 2, minus the synonymous-codon median (not a log2 …; as for chain 1 N549K, -0.863 DMS score: mean over two replicates of log2(f_test/f_ref + 0.5)/ln 2, minus the synonymous-codon median (not a log2 ….
On to chain 1 N549V, for which the screen value is 1.32 DMS score: mean over two replicates of log2(f_test/f_ref + 0.5)/ln 2, minus the synonymous-codon median (not a log2 ….
To chain 1 D568T belongs -2.96 DMS score: mean over two replicates of log2(f_test/f_ref + 0.5)/ln 2, minus the synonymous-codon median (not a log2 ….
As for chain 1 Y541Q, the screen value is -2.54 DMS score: mean over two replicates of log2(f_test/f_ref + 0.5)/ln 2, minus the synonymous-codon median (not a log2 ….
To chain 1 V565C belongs 0.907 DMS score: mean over two replicates of log2(f_test/f_ref + 0.5)/ln 2, minus the synonymous-codon median (not a log2 ….
To chain 1 T538F belongs 0.0744 DMS score: mean over two replicates of log2(f_test/f_ref + 0.5)/ln 2, minus the synonymous-codon median (not a log2 …; to chain 1 T538E, -0.61 DMS score: mean over two replicates of log2(f_test/f_ref + 0.5)/ln 2, minus the synonymous-codon median (not a log2 …; to chain 1 S579V, -0.988 DMS score: mean over two replicates of log2(f_test/f_ref + 0.5)/ln 2, minus the synonymous-codon median (not a log2 ….
To chain 1 K576N belongs -0.58 DMS score: mean over two replicates of log2(f_test/f_ref + 0.5)/ln 2, minus the synonymous-codon median (not a log2 …; to chain 1 K576S, -0.288 DMS score: mean over two replicates of log2(f_test/f_ref + 0.5)/ln 2, minus the synonymous-codon median (not a log2 ….
As to chain 1 N561D, the screen value is -0.211 DMS score: mean over two replicates of log2(f_test/f_ref + 0.5)/ln 2, minus the synonymous-codon median (not a log2 ….
Regarding chain 1 K580C, the screen value is -0.508 DMS score: mean over two replicates of log2(f_test/f_ref + 0.5)/ln 2, minus the synonymous-codon median (not a log2 ….
For chain 1 D566K, the screen value is -2.34 DMS score: mean over two replicates of log2(f_test/f_ref + 0.5)/ln 2, minus the synonymous-codon median (not a log2 ….
Consider chain 1 F553I, for which the screen value was 0.88 DMS score: mean over two replicates of log2(f_test/f_ref + 0.5)/ln 2, minus the synonymous-codon median (not a log2 ….
Turning to chain 1 E575A, the screen value is 0.223 DMS score: mean over two replicates of log2(f_test/f_ref + 0.5)/ln 2, minus the synonymous-codon median (not a log2 ….
chain 1 A546K: the screen value was -0.851 DMS score: mean over two replicates of log2(f_test/f_ref + 0.5)/ln 2, minus the synonymous-codon median (not a log2 ….
As to chain 1 Y587A, the screen value is -2.26 DMS score: mean over two replicates of log2(f_test/f_ref + 0.5)/ln 2, minus the synonymous-codon median (not a log2 ….
On to chain 1 Y587F, for which the screen value was -0.234 DMS score: mean over two replicates of log2(f_test/f_ref + 0.5)/ln 2, minus the synonymous-codon median (not a log2 ….
Turning to chain 1 E555D, the screen value is -1 DMS score: mean over two replicates of log2(f_test/f_ref + 0.5)/ln 2, minus the synonymous-codon median (not a log2 ….
chain 1 E555S: the screen value is 0.724 DMS score: mean over two replicates of log2(f_test/f_ref + 0.5)/ln 2, minus the synonymous-codon median (not a log2 ….
On to chain 1 E555G, for which the screen value was -0.256 DMS score: mean over two replicates of log2(f_test/f_ref + 0.5)/ln 2, minus the synonymous-codon median (not a log2 ….
Take chain 1 E550Q: the screen value is -2.17 DMS score: mean over two replicates of log2(f_test/f_ref + 0.5)/ln 2, minus the synonymous-codon median (not a log2 ….
